Measurements reported in US5486595A, “Tumor necrosis factor inhibitors” (Centecor, Inc., priority 1994, dated 1996).
Where a SMILES comes first, the peptide text is derived from it. Where no end group is shown, it is not given here.

target: T1, human TNFα (Homo sapiens, UniProt P01375); test: p55 Receptor/IgG Fusion Protein Binding Assay (inhibition of TNFα capture by p55-Ig coated plate); settings: peptide 1 mM; TNFα 25 ng/ml
T1 construct: purchased Biosource, Camarillo, Calif
T1 sequence (P01375 77-233 limits assumed): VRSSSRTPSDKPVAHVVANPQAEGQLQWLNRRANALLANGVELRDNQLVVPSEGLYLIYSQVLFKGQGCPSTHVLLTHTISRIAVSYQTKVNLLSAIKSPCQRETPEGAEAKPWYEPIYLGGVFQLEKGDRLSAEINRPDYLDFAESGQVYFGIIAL

Compound | inhibition of binding of TNFα to p55TNFr-IgG chimeric construct [%]
SEQ ID NO:34: peptide of the invention that inhibits TNFα; sequence not printed (SDTVADSAEDSTYTQ) | 65
SEQ ID NO:35: peptide of the invention that inhibits TNFα; sequence not printed (VADSAEDSTYTQLWN) | 72
SEQ ID NO:36: peptide of the invention that inhibits TNFα; sequence not printed (SAEDSTYTQLWNWVP) | 77
SEQ ID NO:37: peptide of the invention that inhibits TNFα; sequence not printed (DSTYTQLWNWVPEAL) | 77
SEQ ID NO:38: peptide of the invention that inhibits TNFα; sequence not printed (YTQLWNWVPEALSAG) | 64
SEQ ID NO:39: peptide of the invention that inhibits TNFα; sequence not printed (LWNWVPEALSAGSRA) | 42
SEQ ID NO:40: peptide of the invention that inhibits TNFα; sequence not printed (WVPEALSAGSRASSD) | 72
SEQ ID NO:41: peptide of the invention that inhibits TNFα; sequence not printed (EALSAGSRASSDQVE) | 68
SEQ ID NO:42: peptide of the invention that inhibits TNFα; sequence not printed (SSDQVETQAATREQN) | 40
SEQ ID NO:44: peptide of the invention that inhibits TNFα; sequence not printed (AAPGTFSNTTSSTDI) | 28
SEQ ID NO:45: peptide of the invention that inhibits TNFα; sequence not printed (GTFSNTTSSTDIARP; also: C-terminal blocking group) | 73
SEQ ID NO:46: peptide of the invention that inhibits TNFα; sequence not printed (SNTTSSTDIARPHQI) | 66
SEQ ID NO:47: peptide of the invention that inhibits TNFα; sequence not printed (TSSTDIARPHQIANV) | 29

Other lines, results leading:

inhibition of binding of TNFα to p55TNFr-IgG chimeric construct [%] | Compound
37 | SEQ ID NO:43: peptide of the invention that inhibits TNFα; sequence not printed (PGWYAALSKQEGARL)
27 | SEQ ID NO:48: peptide of the invention that inhibits TNFα; sequence not printed (TDIARPHQIANVVAI)
26 | SEQ ID NO:49: peptide of the invention that inhibits TNFα; sequence not printed (ARPHQIANVVAIPGN)

same assay, conditions: peptide 1 mM; TNFα 25 ng/ml; read-out: inhibition of binding of TNFα to p55TNFr-IgG chimeric construct

Compound | inhibition at 1000 µM [%]
CC(C)[C@H](NC(=O)[C@H](CCCCN)NC(=O)[C@H](C)NC(=O)[C@@H](N)Cc1c[nH]cn1)C(=O)N[C@@H](Cc1ccccc1)C(=O)N[C@@H](C)C(=O)N[C@H](C(=O)N[C@@H](CCCCN)C(=O)N[C@H](C(=O)N[C@@H](CO)C(=O)N[C@@H](CC(=O)O)C(=O)N[C@H](C(=O)N[C@H](C(=O)N[C@@H](C)C(=O)N[C@@H](CC(=O)O)C(N)=O)C(C)C)[C@@H](C)O)[C@@H](C)O)[C@@H](C)O [SEQ ID NO:31] (H-HAKVFATKTSDTVAD-NH2) | 68
CC(C)[C@H](N)C(=O)N[C@@H](Cc1ccccc1)C(=O)N[C@@H](C)C(=O)N[C@H](C(=O)N[C@@H](CCCCN)C(=O)N[C@H](C(=O)N[C@@H](CO)C(=O)N[C@@H](CC(=O)O)C(=O)N[C@H](C(=O)N[C@H](C(=O)N[C@@H](C)C(=O)N[C@@H](CC(=O)O)C(=O)N[C@@H](CO)C(=O)N[C@@H](C)C(=O)N[C@@H](CCC(=O)O)C(N)=O)C(C)C)[C@@H](C)O)[C@@H](C)O)[C@@H](C)O [SEQ ID NO:32] (H-VFATKTSDTVADSAE-NH2) | 64
CSCC[C@H](NC(=O)[C@H](CO)NC(=O)[C@H](CCCNC(=N)N)NC(=O)[C@@H](NC(=O)[C@@H]1CCCN1C(=O)[C@H](CO)NC(=O)[C@@H](NC(=O)[C@H](CO)NC(=O)[C@@H](NC(=O)[C@H](C)N)[C@@H](C)O)[C@@H](C)O)[C@@H](C)O)C(=O)N[C@@H](C)C(=O)N1CCC[C@H]1C(=O)NCC(=O)N[C@@H](C)C(=O)N[C@H](C(N)=O)C(C)C [SEQ ID NO:54] (H-ATSTSPTRSMAPGAV-NH2) | 52
CC(C)C[C@H](NC(=O)[C@@H](N)Cc1c[nH]cn1)C(=O)N1CCC[C@H]1C(=O)N[C@@H](CCC(N)=O)C(=O)N1CCC[C@H]1C(=O)N[C@H](C(=O)N[C@@H](CO)C(=O)N[C@H](C(=O)N[C@@H](CCCNC(=N)N)C(=O)N[C@@H](CO)C(=O)N[C@@H](CCC(N)=O)C(=O)N[C@@H](Cc1c[nH]cn1)C(=O)N[C@H](C(=O)N[C@@H](CCC(N)=O)C(=O)N1CCC[C@H]1C(N)=O)[C@@H](C)O)[C@@H](C)O)C(C)C [SEQ ID NO:56] (H-HLPQPVSTRSQHTQP-NH2) | 67
C[C@H](NC(=O)[C@@H](NC(=O)[C@H](CO)NC(=O)[C@@H]1CCCN1C(=O)[C@H](CCC(=O)O)NC(=O)[C@@H]1CCCN1C(=O)[C@@H](NC(=O)[C@@H]1CCCN1C(=O)[C@H](CCC(N)=O)NC(=O)[C@@H](N)[C@@H](C)O)[C@@H](C)O)[C@@H](C)O)C(=O)N1CCC[C@H]1C(=O)N[C@@H](CO)C(=O)N[C@H](C(=O)N[C@@H](CO)C(=O)N[C@@H](Cc1ccccc1)C(N)=O)[C@@H](C)O [SEQ ID NO:59] (H-TQPTPEPSTAPSTSF-NH2) | 73
CC(C)C[C@H](NC(=O)[C@H](Cc1ccccc1)NC(=O)[C@H](CO)NC(=O)[C@@H](NC(=O)[C@H](CO)NC(=O)[C@@H]1CCCN1C(=O)[C@H](C)NC(=O)[C@@H](NC(=O)[C@H](CO)NC(=O)[C@@H]1CCCN1C(=O)[C@H](CCC(=O)O)NC(=O)[C@@H]1CCCN1C(=O)[C@@H](N)[C@@H](C)O)[C@@H](C)O)[C@@H](C)O)C(=O)N[C@@H](CC(C)C)C(=O)N1CCC[C@H]1C(N)=O [SEQ ID NO:60] (H-TPEPSTAPSTSFLLP-NH2) | 73

Further lines, results first:

inhibition at 1000 µM [%] | Compound
59 | CSCC[C@H](NC(=O)[C@H](CCC(N)=O)NC(=O)[C@H](C)NC(=O)[C@@H](NC(=O)[C@H](CCC(N)=O)NC(=O)[C@H](CC(=O)O)NC(=O)[C@H](Cc1ccc(O)cc1)NC(=O)[C@H](Cc1ccc(O)cc1)NC(=O)[C@@H](N)CCC(=O)O)[C@@H](C)O)C(=O)N[C@@H](C)C(=O)N[C@@H](C)C(=O)N[C@@H](CO)C(=O)N[C@@H](CCCCN)C(=O)N[C@@H](C)C(=O)N[C@@H](CO)C(N)=O [SEQ ID NO:30] (H-EYYDQTAQMAASKAS-NH2)
67 | CC(C)[C@H](NC(=O)[C@@H](NC(=O)[C@H](CC(=O)O)NC(=O)[C@H](CO)NC(=O)[C@@H](NC(=O)[C@H](CCCCN)NC(=O)[C@@H](N)[C@@H](C)O)[C@@H](C)O)[C@@H](C)O)C(=O)N[C@@H](C)C(=O)N[C@@H](CC(=O)O)C(=O)N[C@@H](CO)C(=O)N[C@@H](C)C(=O)N[C@@H](CCC(=O)O)C(=O)N[C@@H](CC(=O)O)C(=O)N[C@@H](CO)C(=O)N[C@H](C(N)=O)[C@@H](C)O [SEQ ID NO:33] (H-TKTSDTVADSAEDST-NH2)
60 | CC(C)C[C@H](NC(=O)[C@H](Cc1c[nH]cn1)NC(=O)[C@@H](NC(=O)[C@H](C)NC(=O)CN)C(C)C)C(=O)N1CCC[C@H]1C(=O)N[C@@H](CCC(N)=O)C(=O)N1CCC[C@H]1C(=O)N[C@H](C(=O)N[C@@H](CO)C(=O)N[C@H](C(=O)N[C@@H](CCCNC(=N)N)C(=O)N[C@@H](CO)C(=O)N[C@@H](CCC(N)=O)C(=O)N[C@@H](Cc1c[nH]cn1)C(N)=O)[C@@H](C)O)C(C)C [SEQ ID NO:55] (H-GAVHLPQPVSTRSQH-NH2)
72 | C[C@@H](O)[C@H](NC(=O)[C@H](CO)NC(=O)[C@@H]1CCCN1C(=O)[C@H](CCC(=O)O)NC(=O)[C@@H]1CCCN1C(=O)[C@@H](NC(=O)[C@@H]1CCCN1C(=O)[C@H](CCC(N)=O)NC(=O)[C@@H](NC(=O)[C@H](Cc1c[nH]cn1)NC(=O)[C@H](CCC(N)=O)NC(=O)[C@H](CO)NC(=O)[C@H](CCCNC(=N)N)NC(=O)[C@@H](NC(=O)[C@@H](N)CO)[C@@H](C)O)[C@@H](C)O)[C@@H](C)O)C(N)=O [SEQ ID NO:57] (H-STRSQHTQPTPEPST-NH2)
72 | C[C@H](NC(=O)[C@@H](NC(=O)[C@H](CO)NC(=O)[C@@H]1CCCN1C(=O)[C@H](CCC(=O)O)NC(=O)[C@@H]1CCCN1C(=O)[C@@H](NC(=O)[C@@H]1CCCN1C(=O)[C@H](CCC(N)=O)NC(=O)[C@@H](NC(=O)[C@H](Cc1c[nH]cn1)NC(=O)[C@H](CCC(N)=O)NC(=O)[C@@H](N)CO)[C@@H](C)O)[C@@H](C)O)[C@@H](C)O)C(=O)N1CCC[C@H]1C(=O)N[C@@H](CO)C(N)=O [SEQ ID NO:58] (H-SQHTQPTPEPSTAPS-NH2)
72 | CSCC[C@H](NC(=O)[C@@H]1CCCN1C(=O)[C@H](CC(C)C)NC(=O)[C@H](CC(C)C)NC(=O)[C@H](Cc1ccccc1)NC(=O)[C@H](CO)NC(=O)[C@@H](NC(=O)[C@H](CO)NC(=O)[C@@H]1CCCN1C(=O)[C@H](C)NC(=O)[C@@H](NC(=O)[C@H](CO)NC(=O)[C@@H]1CCCN1)[C@@H](C)O)[C@@H](C)O)C(=O)NCC(=O)N1CCC[C@H]1C(N)=O [SEQ ID NO:61] (H-PSTAPSTSFLLPMGP-NH2)
62 | CSCC[C@H](NC(=O)[C@@H]1CCCN1C(=O)[C@H](CC(C)C)NC(=O)[C@H](CC(C)C)NC(=O)[C@H](Cc1ccccc1)NC(=O)[C@H](CO)NC(=O)[C@@H](NC(=O)[C@H](CO)NC(=O)[C@@H]1CCCN1C(=O)[C@H](C)N)[C@@H](C)O)C(=O)NCC(=O)N1CCC[C@H]1C(=O)N[C@@H](CO)C(=O)N1CCC[C@H]1C(=O)N1CCC[C@H]1C(N)=O [SEQ ID NO:62] (H-APSTSFLLPMGPSPP-NH2)

same assay, conditions: various concentrations of peptide

dose dependent inhibition of TNFα (FIG. 1) | Compound
dose dependent inhibition | SEQ ID NO:45: peptide of the invention that inhibits TNFα; sequence not printed (GTFSNTTSSTDIARP; also: C-terminal blocking group)
